In patent US20070202552A1 (Genentech, published 2007):
Read-outs that look alike come from different tables or passages of the source.

Experiments:
[1] = biological target: T1, human HER-2 extracellular domain (HER-2 ECD) (human, UniProt P04626 23-646); test: competitive Fab-phage ELISA
T1 construct: range 23-646; also called erbB2; HER2 protein

[2] = biological target: T1, human HER-2 extracellular domain (HER-2 …); test: competitive Fab-phage ELISA; remark: listed apart in the source

| IC50 [1] [nM] | IC50 [2] [nM] | Binder |
| --- | --- | --- |
| 0.72 | – | B9 (Fab, V domains shown) VH: EVQLVESGGGLVQPGGSLRLSCAASGFSIYYSYIHWVRQAPGKGLEWVASIYPSSGYTSYADSVKGRFTISADTSKNTAYLQMNSLRAEDTAVYYCARWWSSAFDYWGQGTLVTVSS VL: DIQMTQSPSSLSASVGDRVTITCRASQDVNTAVAWYQQKPGKAPKLLIYSASSLYSGVPSRFSGSRSGTDFTLTISSLQPEDFATYYCQQSYYSPSTFGQGTKVEIK |
| – | 9.75 | G53 (Fab, V domains shown) VH: EVQLVESGGGLVQPGGSLRLSCAASGFSISSSYIHWVRQAPGKGLEWVASIYPYSGYTSYADSVKGRFTISADTSKNTAYLQMNSLRAEDTAVYYCARYYSSAFDYWGQGTLVTVSS VL: DIQMTQSPSSLSASVGDRVTITCRASQDVNTAVAWYQQKPGKAPKLLIYSASSLYSGVPSRFSGSRSGTDFTLTISSLQPEDFATYYCQQSYYYPSTFGQGTKVEIK |
| – | 79.8 | G60 (Fab, V domains shown) VH: EVQLVESGGGLVQPGGSLRLSCAASGFSIYYSSIHWVRQAPGKGLEWVASIYPYSGSTYYADSVKGRFTISADTSKNTAYLQMNSLRAEDTAVYYCARYYSSYSSSSSYYYYAFDYWGQGTLVTVSS VL: DIQMTQSPSSLSASVGDRVTITCRASQDVNTAVAWYQQKPGKAPKLLIYSASSLYSGVPSRFSGSRSGTDFTLTISSLQPEDFATYYCQQYYSSPYTFGQGTKVEIK |
| – | 51 | G41 (Fab, V domains shown) VH: EVQLVESGGGLVQPGGSLRLSCAASGFWIWSSSIHWVRQAPGKGLEWVAWISPSSGSTWYADSVKGRFTISADTSKNTAYLQMNSLRAEDTAVYYCARSSWSSWSSALDYWGQGTLVTVSS VL: DIQMTQSPSSLSASVGDRVTITCRASQDVNTAVAWYQQKPGKAPKLLIYSASSLYSGVPSRFSGSRSGTDFTLTISSLQPEDFATYYCQQWSSWPSTFGQGTKVEIK |
| – | 145 | G61 (Fab, V domains shown) VH: EVQLVESGGGLVQPGGSLRLSCAASGFSIYYSSIHWVRQAPGKGLEWVASIYPSSGSTYYADSVKGRFTISADTSKNTAYLQMNSLRAEDTAVYYCARYYSSSSSYSSSYYYYAFDYWGQGTLVTVSS VL: DIQMTQSPSSLSASVGDRVTITCRASQDVNTAVAWYQQKPGKAPKLLIYSASSLYSGVPSRFSGSRSGTDFTLTISSLQPEDFATYYCQQYYSSPYTFGQGTKVEIK |
| – | 43 | G42 (Fab, V domains shown) VH: EVQLVESGGGLVQPGGSLRLSCAASGFWIWSSSIHWVRQAPGKGLEWVAWISPSSGSTWYADSVKGRFTISADTSKNTAYLQMNSLRAEDTAVYYCARSSWSSWSSALDYWGQGTLVTVSS VL: DIQMTQSPSSLSASVGDRVTITCRASQDVNTAVAWYQQKPGKAPKLLIYSASSLYSGVPSRFSGSRSGTDFTLTISSLQPEDFATYYCQQWSSWPSTFGQGTKVEIK |
| – | 6.8 | G59 (Fab, V domains shown) VH: EVQLVESGGGLVQPGGSLRLSCAASGFYISSSSIHWVRQAPGKGLEWVAYISPSSGYTYYADSVKGRFTISADTSKNTAYLQMNSLRAEDTAVYYCARYYSSYYSYYSYALDYWGQGTLVTVSS VL: DIQMTQSPSSLSASVGDRVTITCRASQDVNTAVAWYQQKPGKAPKLLIYSASSLYSGVPSRFSGSRSGTDFTLTISSLQPEDFATYYCQQSYSYPYTFGQGTKVEIK |
| 3.76 | – | B10 (Fab, V domains shown) VH: EVQLVESGGGLVQPGGSLRLSCAASGFSIYYSYIHWVRQAPGKGLEWVASIYPSSGYTSYADSVKGRFTISADTSKNTAYLQMNSLRAEDTAVYYCARWWSSGFDYWGQGTLVTVSS VL: DIQMTQSPSSLSASVGDRVTITCRASQDVNTAVAWYQQKPGKAPKLLIYSASSLYSGVPSRFSGSRSGTDFTLTISSLQPEDFATYYCQQSYYSPSTFGQGTKVEIK |
| – | 6.52 | G55 (Fab, V domains shown) VH: EVQLVESGGGLVQPGGSLRLSCAASGFSIYSSYIHWVRQAPGKGLEWVASIYPYSGYTSYADSVKGRFTISADTSKNTAYLQMNSLRAEDTAVYYCARYYSYAFDYWGQGTLVTVSS VL: DIQMTQSPSSLSASVGDRVTITCRASQDVNTAVAWYQQKPGKAPKLLIYSASSLYSGVPSRFSGSRSGTDFTLTISSLQPEDFATYYCQQSYYYPSTFGQGTKVEIK |
| 1.77 | – | B16 (Fab, V domains shown) VH: EVQLVESGGGLVQPGGSLRLSCAASGFSISYSYIHWVRQAPGKGLEWVASIYPYSGYTSYADSVKGRFTISADTSKNTAYLQMNSLRAEDTAVYYCARWWSSAFDYWGQGTLVTVSS VL: DIQMTQSPSSLSASVGDRVTITCRASQDVNTAVAWYQQKPGKAPKLLIYSASSLYSGVPSRFSGSRSGTDFTLTISSLQPEDFATYYCQQYYYYPSTFGQGTKVEIK |
| 6.28 | – | B1 (Fab, V domains shown) VH: EVQLVESGGGLVQPGGSLRLSCAASGFYISSSYIHWVRQAPGKGLEWVASIYPYSGYTSYADSVKGRFTISADTSKNTAYLQMNSLRAEDTAVYYCARYYSYAFDYWGQGTLVTVSS VL: DIQMTQSPSSLSASVGDRVTITCRASQDVNTAVAWYQQKPGKAPKLLIYSASSLYSGVPSRFSGSRSGTDFTLTISSLQPEDFATYYCQQSYYSPSTFGQGTKVEIK |
| 1.1 | – | B13 (Fab, V domains shown) VH: EVQLVESGGGLVQPGGSLRLSCAASGFSIYYSYIHWVRQAPGKGLEWVASIYPSSGYTSYADSVKGRFTISADTSKNTAYLQMNSLRAEDTAVYYCARWWSSAFDYWGQGTLVTVSS VL: DIQMTQSPSSLSASVGDRVTITCRASQDVNTAVAWYQQKPGKAPKLLIYSASSLYSGVPSRFSGSRSGTDFTLTISSLQPEDFATYYCQQSYYYPSTFGQGTKVEIK |
| 1.56 | – | B20 (Fab, V domains shown) VH: EVQLVESGGGLVQPGGSLRLSCAASGFSISSSYIHWVRQAPGKGLEWVASIYPYSGYTSYADSVKGRFTISADTSKNTAYLQMNSLRAEDTAVYYCARWWSSALDYWGQGTLVTVSS VL: DIQMTQSPSSLSASVGDRVTITCRASQDVNTAVAWYQQKPGKAPKLLIYSASSLYSGVPSRFSGSRSGTDFTLTISSLQPEDFATYYCQQSYYSPSTFGQGTKVEIK |
| 2.72 | – | B22 (Fab, V domains shown) VH: EVQLVESGGGLVQPGGSLRLSCAASGFSISSSYIHWVRQAPGKGLEWVASIYPYSGYTSYADSVKGRFTISADTSKNTAYLQMNSLRAEDTAVYYCARWWSSAMDYWGQGTLVTVSS VL: DIQMTQSPSSLSASVGDRVTITCRASQDVNTAVAWYQQKPGKAPKLLIYSASSLYSGVPSRFSGSRSGTDFTLTISSLQPEDFATYYCQQSYYYPSTFGQGTKVEIK |
| 1.75 | – | B15 (Fab, V domains shown) VH: EVQLVESGGGLVQPGGSLRLSCAASGFSISSSYIHWVRQAPGKGLEWVASIYPYSGYTSYADSVKGRFTISADTSKNTAYLQMNSLRAEDTAVYYCARWWSSALDYWGQGTLVTVSS VL: DIQMTQSPSSLSASVGDRVTITCRASQDVNTAVAWYQQKPGKAPKLLIYSASSLYSGVPSRFSGSRSGTDFTLTISSLQPEDFATYYCQQSYYSPSTFGQGTKVEIK |
| 1.64 | – | B21 (Fab, V domains shown) VH: EVQLVESGGGLVQPGGSLRLSCAASGFSIYSSYIHWVRQAPGKGLEWVASIYPYSGYTSYADSVKGRFTISADTSKNTAYLQMNSLRAEDTAVYYCARWSSSGFDYWGQGTLVTVSS VL: DIQMTQSPSSLSASVGDRVTITCRASQDVNTAVAWYQQKPGKAPKLLIYSASSLYSGVPSRFSGSRSGTDFTLTISSLQPEDFATYYCQQYYYSPSTFGQGTKVEIK |
| 6.66 | – | B12 (Fab, V domains shown) VH: EVQLVESGGGLVQPGGSLRLSCAASGFSISYSYIHWVRQAPGKGLEWVASIYPYSGYTSYADSVKGRFTISADTSKNTAYLQMNSLRAEDTAVYYCARWWSWAFDYWGQGTLVTVSS VL: DIQMTQSPSSLSASVGDRVTITCRASQDVNTAVAWYQQKPGKAPKLLIYSASSLYSGVPSRFSGSRSGTDFTLTISSLQPEDFATYYCQQYYYSPSTFGQGTKVEIK |
| 0.93 | – | B18 (Fab, V domains shown) VH: EVQLVESGGGLVQPGGSLRLSCAASGFSISSSYIHWVRQAPGKGLEWVASIYPYSGYTSYADSVKGRFTISADTSKNTAYLQMNSLRAEDTAVYYCARWWSSAFDYWGQGTLVTVSS VL: DIQMTQSPSSLSASVGDRVTITCRASQDVNTAVAWYQQKPGKAPKLLIYSASSLYSGVPSRFSGSRSGTDFTLTISSLQPEDFATYYCQQYYYSPSTFGQGTKVEIK |
| – | 1.7 | G33 (Fab, V domains shown) VH: EVQLVESGGGLVQPGGSLRLSCAASGFSIWSSWIHWVRQAPGKGLEWVASISPSSGWTSYADSVKGRFTISADTSKNTAYLQMNSLRAEDTAVYYCARWWSSALDYWGQGTLVTVSS VL: DIQMTQSPSSLSASVGDRVTITCRASQDVNTAVAWYQQKPGKAPKLLIYSASSLYSGVPSRFSGSRSGTDFTLTISSLQPEDFATYYCQQWWWWPSTFGQGTKVEIK |
| 5.76 | – | B17 (Fab, V domains shown) VH: EVQLVESGGGLVQPGGSLRLSCAASGFYIYSSYIHWVRQAPGKGLEWVASIYPYSGYTSYADSVKGRFTISADTSKNTAYLQMNSLRAEDTAVYYCARWWSSGFDYWGQGTLVTVSS VL: DIQMTQSPSSLSASVGDRVTITCRASQDVNTAVAWYQQKPGKAPKLLIYSASSLYSGVPSRFSGSRSGTDFTLTISSLQPEDFATYYCQQSYYYPSTFGQGTKVEIK |
| – | 7.13 | G56 (Fab, V domains shown) VH: EVQLVESGGGLVQPGGSLRLSCAASGFYISSSYIHWVRQAPGKGLEWVASIYPYSGYTSYADSVKGRFTISADTSKNTAYLQMNSLRAEDTAVYYCARYYSYALDYWGQGTLVTVSS VL: DIQMTQSPSSLSASVGDRVTITCRASQDVNTAVAWYQQKPGKAPKLLIYSASSLYSGVPSRFSGSRSGTDFTLTISSLQPEDFATYYCQQSYYSPSTFGQGTKVEIK |
| 1.36 | – | B14 (Fab, V domains shown) VH: EVQLVESGGGLVQPGGSLRLSCAASGFSIYYSYIHWVRQAPGKGLEWVASIYPSSGYTSYADSVKGRFTISADTSKNTAYLQMNSLRAEDTAVYYCARWWSSAFDYWGQGTLVTVSS VL: DIQMTQSPSSLSASVGDRVTITCRASQDVNTAVAWYQQKPGKAPKLLIYSASSLYSGVPSRFSGSRSGTDFTLTISSLQPEDFATYYCQQYYYYPYTFGQGTKVEIK |
